From PMC4520091 come the findings set out here.

Data set [1] concerns yPrp3CTF. Description: EMSA. As to conditions: tRNA competitor, EMSA: 20 mM Tris-HCl pH 7.0, 150 mM NaCl, 2 mM DTT, 0.5 ug/ul tRNA, 4 C, titrations: 20 mM HEPES pH 6.8, 150 mM NaCl, 0.33 ug/ul tRNA, human FL/N/C: 10 mM Tris ….
For data set [2], the system named is yPrp3CTF R322A. Description: EMSA. As to conditions: tRNA competitor; apparent Kd; EMSA: 20 mM Tris-HCl pH 7.0, 150 mM NaCl, 2 mM DTT, 0.5 ug/ul tRNA, 4 C; titrations: 20 mM HEPES pH 6.8, 150 mM NaCl, 0.33 ug/ul tRNA; human FL/N/C: 10 mM Tris …. In general terms: In EMSA bound probe runs differently from free probe, usually more slowly.
Data set [3] concerns yPrp3CTF R304A. Description: EMSA. Particulars: tRNA competitor; apparent Kd; EMSA: 20 mM Tris-HCl pH 7.0, 150 mM NaCl, 2 mM DTT, 0.5 ug/ul tRNA, 4 C; titrations: 20 mM HEPES pH 6.8, 150 mM NaCl, 0.33 ug/ul tRNA; human FL/N/C: 10 mM Tris ….
The subject of data set [4] is yPrp3DUF1115. Description: EMSA. Particulars: tRNA competitor; apparent Kd; EMSA: 20 mM Tris-HCl pH 7.0, 150 mM NaCl, 2 mM DTT, 0.5 ug/ul tRNA, 4 C; titrations: 20 mM HEPES pH 6.8, 150 mM NaCl, 0.33 ug/ul tRNA; human FL/N/C: 10 mM Tris ….
Data set [5] relates to yPrp3CTF. Description: ITC. Particulars: 20 C, GAGA-fused RNA; EMSA: 20 mM Tris-HCl pH 7.0, 150 mM NaCl, 2 mM DTT, 0.5 ug/ul tRNA, 4 C; titrations: 20 mM HEPES pH 6.8, 150 mM NaCl, 0.33 ug/ul tRNA; human FL/N/C: 10 mM Tris ….
In data set [6] the test system is yPrp3CTF R322A. Description: ITC. As to conditions: 20 C, GAGA-fused RNA; EMSA: 20 mM Tris-HCl pH 7.0, 150 mM NaCl, 2 mM DTT, 0.5 ug/ul tRNA, 4 C; titrations: 20 mM HEPES pH 6.8, 150 mM NaCl, 0.33 ug/ul tRNA; human FL/N/C: 10 mM Tris ….
Data set [7] concerns yPrp3CTF R304A. Description: ITC. Particulars: 20 C, GAGA-fused RNA; EMSA: 20 mM Tris-HCl pH 7.0, 150 mM NaCl, 2 mM DTT, 0.5 ug/ul tRNA, 4 C; titrations: 20 mM HEPES pH 6.8, 150 mM NaCl, 0.33 ug/ul tRNA; human FL/N/C: 10 mM Tris ….
Data set [8] concerns yPrp3DUF1115. Description: ITC. As to conditions: EMSA: 20 mM Tris-HCl pH 7.0, 150 mM NaCl, 2 mM DTT, 0.5 ug/ul tRNA, 4 C; titrations: 20 mM HEPES pH 6.8, 150 mM NaCl, 0.33 ug/ul tRNA; human FL/N/C: 10 mM Tris ….

Consider yU4/U6 stem II+13nt, for which the Kd in data set [1] (apparent Kd) is 920 nM; in data set [2], 2630 nM; in data set [3], 1580 nM; in data set [4], 1830 nM; in data set [5], 110 nM; in data set [6], 400 nM. In addition, the Kd in data set [7] turned out to be 260 nM; in data set [8], 380 nM.
As to yU4/U6 stem II+13nt U4 C12G, the binding signal (fold lower affinity than wt) in data set [1] worked out at 2.
Still for that read-out and setting: then yU4/U6 stem II+13nt U6 C69G, with 2.
